Assays:
Type in all cases: in vivo
[1] = test system: non-insulin dependent diabetic mellitus (NIDDM) male mice (C57BLKS/J-m+/+Lepr db); experiment: Serum glucose and total body weight after oral rhLF for 20 days in diabetic mice; conditions: 65 mg/kg orally via gavage once per day for 20 days
Experimental: Five groups of 6 non-insulin dependent diabetic mellitus (NIDDM) male mice (C57BLKS/J-m+/+Lepr db) weighing 50±grams and 9-10 weeks old were given either rhLF vehicle (Placebo), or RhLF (65 mg/kg) orally via gavage for 20 days (once per day) in a volume of 0.13 ml. Blood samples were obtained from the orbital sinus on day 0 and day 20 at 90 minutes following the last administration. Animals were fasted for 3 hours prior to sampling. Serum glucose levels were determined by enzymatic method (mutaratase-GOD). Total body weight measurements were determined on days 0 and 20. Percentage differences were determined with respect to pre-treatment values and analyzed statistically with the unpaired Student' t test. Differences were considered significant at p values of less than 0.05.

[2] = test system: non-insulin dependent diabetic mellitus (NIDDM) male mice (C57BLK/J-m+/Lepr db); experiment: Serum insulin (ELISA) after oral rhLF for 15 days in diabetic mice; conditions: 650 and 65 mg/kg orally once daily for 15 days, Day 15 Post, fasted 3 h
Experimental: (§1) RhLF (650 and 65 mg/kg) and vehicle/placebo (rhLF diluent buffer pH 7.0) were administered orally once daily for 15 consecutive days to groups of 4 non-insulin dependent diabetic mellitus (NIDDM) male mice. […] All animals were allowed free access to normal laboratory chow and water. Blood samples were withdrawn from the orbital sinus immediately before dosing on day 1 (Day 1 Pre) and 90 minutes after the last administration on day 15 (Day 15 Post). The animals were fasted for 3 hours prior to sampling.

[3] = test system: non-insulin dependent diabetic mellitus (NIDDM) male mice (C57BLKS/J-m+/+Lepr db); experiment: Serum glucose after topical rhLF gel for 20 days in diabetic mice; conditions: RhLF gel (1%) topically, 0.2 mg per mouse once per day for 20 days onto a 12 mm punch excision; day 20; with respect to pre-treatment values
Experimental: Two groups of 6 non-insulin dependent diabetic mellitus (NIDDM) male mice (C57BLKS/J-m+/+Lepr db) weighing 50+grams and 9-10 weeks old were given either rhLF vehicle (Placebo), or RhLF gel (1%) topically (0.2 mg per mouse/once per day) for 20 days applied directly onto a 12 mm punch excision. Blood samples were obtained from the orbital sinus on day 0 and day 20 at 90 minutes. The animals were fasted for 3 hours prior to sampling. Serum glucose levels were determined by enzymatic method (mutaratase-GOD). Percentage differences were determined with respect to pre-treatment values and analyzed statistically with the unpaired Student' t test. Differences were considered significant at p values of less than 0.05 (FIG. 4).

[4] = test system: non-insulin dependent diabetic mellitus (NIDDM) male mice C57BLK/J-m+/Lepr db; experiment: Serum glucose after oral rhLF for 15 days in diabetic db/db mice; conditions: Day 15 Post (90 min after dosing), fasted 3 h, relative to placebo
Experimental: as §1, with “(650 mg/kg” for “(650”, “first” for “last”, “sampling. Serum glucose levels were determined by enzymatic method (mutaratase-GOD). Four animals per cohort were studied. Reduction and p-value (1-tailed) were determined relative to placebo.” for “sampling.”

B1: RhLF: Recombinant human lactoferrin, a single chain metal binding glycoprotein; given orally in diluent buffer or topically as 1% gel (protein, UniProt P02788 20-710, looked up)
Lactotransferrin: GRRRSVQWCAVSQPEATKCFQWQRNMRKVRGPPVSCIKRDSPIQCIQAIAENRADAVTLDGGFIYEAGLAPYKLRPVAAEVYGTERQPRTHYYAVAVVKKGGSFQLNELQGLKSCHTGLRRTAGWNVPIGTLRPFLNWTGPPEPIEAAVARFFSASCVPGADKGQFPNLCRLCAGTGENKCAFSSQEPYFSYSGAFKCLRDGAGDVAFIRESTVFEDLSDEAERDEYELLCPDNTRKPVDKFKDCHLARVPSHAVVARSVNGKEDAIWNLLRQAQEKFGKDKSPKFQLFGSPSGQKDLLFKDSAIGFSRVPPRIDSGLYLGSGYFTAIQNLRKSEEEVAARRARVVWCAVGEQELRKCNQWSGLSEGSVTCSSASTTEDCIALVLKGEADAMSLDGGYVYTAGKCGLVPVLAENYKSQQSSDPDPNCVDRPVEGYLAVAVVRRSDTSLTWNSVKGKKSCHTAVDRTAGWNIPMGLLFNQTGSCKFDEYFSQSCAPGSDPRSNLCALCIGDEQGENKCVPNSNERYYGYTGAFRCLAENAGDVAFVKDVTVLQNTDGNNNEAWAKDLKLADFALLCLDGKRKPVTEARSCHLAMAPNHAVVSRMDKVERLKQVLLHQQAKFGRNGSDCPDKFCLFQSETKNLLFNDNTECLARLHGKTTYEKYLGPQYVAGITNLKKCSTSPLLEACEFLRK
reduction in serum glucose ([1]; day 20, 90 min after last administration, with respect to pre-treatment values): 13.8%
reduction in body weight ([1]; day 20 vs day 0): 7.7%
serum insulin levels [2]: increase
reduction of serum glucose [3]: 10.9%
reduction in serum glucose ([4]; 65 mg/kg orally once daily for 15 days): 14.6%
reduction in serum glucose ([4]; 650 mg/kg orally once daily for 15 days): 19.0%
